32 sequences from the supplement of paper PMC9170038 can be followed below.

This data set deals with MS2 coat protein. Kind of data set: apparent KD of MS2 coat protein; designed switch direction (-1 OFF switch, 1 ON switch): -1; higher = weaker reporter binding. The essentials: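 Transcription of designed RNA switches on Illumina chips was done by stalled E. coli RNA polymerase. SNAP-549-labelled MS2 coat protein was then titrated in doubling steps from 0.7 or 1.5 nM to 3 µM, with steps of 0.8–1.5 h at the lowest and 10–20 min at the highest concentration. The per-design median over clusters of curve-fitted normalised fluorescence is reported as apparent KD.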

Where [1] appears, read: Eterna round: R95, input ligand: microRNA oligo, concentration not stated.
The mark [2] stands for this setting: input ligand: microRNA oligo, concentration not stated.

Take “GGUUUGCGGCAGGAUAUCCAUCCGCGGUGUGGUGGAGAAGGGCUGACAUGAGGAUCACCCAUGUGCGUCCUGGU [salish99_ex6_r4_021] (Eterna round: R97, puzzle: Exclusion 6)”: the “apparent KD of MS2 coat protein” value stood at 36.3 nM (input ligand: FMN 200 uM) and 21.8 nM (input ligand: none).

Take “GGUUUGGGAGGAUAUGGUUUGAAUAACAUGAGGAUCACCCAUGUAAAUAGAUCUUCUAGGCCAGAAGGCUCGGGCC [-22.1, -20.72 kcal, A 28%] (Eterna round: R97, puzzle: Exclusion 5)”: the “apparent KD of MS2 coat protein” value (input ligand: FMN 200 uM) came to 46 nM and the “apparent KD of MS2 coat protein” value (input ligand: none) came out at 27.8 nM.

As for “GUAAACGAAGAGGAUAUUUGAUAUCAAAGCUUCAAAGAAGGCUUCACAUGAGGAUCACCCAUGUGAUCUUCAAA [Mat - Exclusion 6 - JL Mod - D18] (Eterna round: R97, puzzle: Exclusion 6)”, the “apparent KD of MS2 coat protein” value (input ligand: FMN 200 uM) worked out at 191 nM and the “apparent KD of MS2 coat protein” value (input ligand: none) was found to be 23.3 nM.

In the case of “GUAAUUAUAUAGGAUAUCGAACUUAUUAUUUAACGAGAAGGAUGAACAUGAGGAUCACCCAUGUGGUAUCAUGG [JL-ex6-3.06] (puzzle: Exclusion 6)”, the “apparent KD of MS2 coat protein” value under setting [1] was 175 nM.

“GUACUGAAGCAUAGCUUUAGUCGUACAUGAGGAUCACCCAUGUAGGAUAUGGUAGGCUUUGCUUACUAGAAGGAUAGAGUGAUC [Mat - Exclusion NG 3 - Mod of JL - D71] (Eterna round: R96, puzzle: Exclusion NG 3)”: the “apparent KD of MS2 coat protein” value stood at 157 nM (input ligand: FMN 200 uM), 86.8 nM under setting [2] and 109 nM (input ligand: none).

In the case of “GUACUGACAGGAUAUACAUGAGGAUCACCCAUGUCCUUAAGCUGACAAAAGUCAGCGAGUAGAAGGGUCUGUAC [Omei Ex3 Model Bachelor's Dilema v4] (Eterna round: R97, puzzle: Exclusion 3)”, the “apparent KD of MS2 coat protein” value reads like this: (input ligand: FMN 200 uM) 467 nM; (input ligand: none) 71.9 nM.

For “GUAGAGUAAGGAUAUAGAGAAUAGGAUAGAAUGGUUAGAAUCUAGAAGGUACAUGAGGAUCACCCAUGUAAUGU [Excluse me!!!! 7 - Jieux - Exclusion 4] (puzzle: Exclusion 4)”, the “apparent KD of MS2 coat protein” value under setting [1] is 18.7 nM.

With “GUAGAGUAAGGAUAUGCAGAAUAGGAUAGAAUGGAUAGAAUGCAGAAGGUACAUGAGGAUCACCCAUGUAAUGU [Excluse me!!!! 1 - Jieux - Exclusion 4] (puzzle: Exclusion 4)”, under setting [1], the “apparent KD of MS2 coat protein” value is 19.3 nM.

As for “GUAGAGUAAGGAUAUUGUGAAUAGGAUAGAAUGGUUAGAAGCAAGAAGGUACAUGAGGAUCACCCAUGUAAUGU [Excluse me!!!! 25 - Jieux - Exclusion 4] (puzzle: Exclusion 4)”, the “apparent KD of MS2 coat protein” value under setting [1] stood at 23.1 nM.

With “GUAGAGUCAGGAUAUACGAGAUCGAAAGAUCGGCGGUCCUUACAUGAGGAUCACCCAUGUAGAAGGGACUCUAC [Omei mod 6 to Eli's favorate candidate (ch.parushev)] (Eterna round: R97, puzzle: Exclusion 2)”, the “apparent KD of MS2 coat protein” value runs as follows: (input ligand: FMN 200 uM) 258 nM; (input ligand: none) 71.3 nM.

Regarding “GUAGAGUCAGGAUAUACGAGAUCGAAAGAUCUUUGAUCCUUACAUGAGGAUCACCCAUGUAGAAGGGACUCUAC [Omei mod 2 to Eli's favorate candidate (ch.parushev)] (Eterna round: R97, puzzle: Exclusion 2)”, the “apparent KD of MS2 coat protein” value came to 513 nM (input ligand: FMN 200 uM) and 43.2 nM (input ligand: none).

Consider “GUAUAACAUGUAGGAUAUGCAUGGCGAAGCUAUGCAGAAGGACAUGAGGAUCACCCAUGUAAUAGCGUCUGCGUACAGAUGCAA [Mat - Exclusion NG 1 - Mod of JL - D91] (Eterna round: R96, puzzle: Exclusion NG 1)”, for which the “apparent KD of MS2 coat protein” value (input ligand: FMN 200 uM) was found to be 186 nM, the “apparent KD of MS2 coat protein” value under setting [2] was 29.4 nM and the “apparent KD of MS2 coat protein” value (input ligand: none) amounted to 38.7 nM.

As for “GUAUAGCUAAAGGAUAUUCUCCGACGACGUGAAGAAGAAGGUUGGACAUGAGGAUCACCCAUGUGUACAGGAUA [Eternabot (L2) Solution 62] (Eterna round: R97, puzzle: Exclusion 6)”, the “apparent KD of MS2 coat protein” value (input ligand: FMN 200 uM) was 21.9 nM and the “apparent KD of MS2 coat protein” value (input ligand: none) stood at 21.8 nM.

As to “GUCAGCUCGUCAGGAUAUGCACAUGAGGAUCACCCAUGUAAGAUCAAGCUGCUUCGGCAGCAAGUGCAGAAGGGACGAGCUGAU [ENG2/9-B3] (Eterna round: R96, puzzle: Exclusion NG 2)”, the “apparent KD of MS2 coat protein” value (input ligand: FMN 200 uM) is 156 nM, the “apparent KD of MS2 coat protein” value under setting [2] came out at 214 nM and the “apparent KD of MS2 coat protein” value (input ligand: none) was found to be 294 nM.

In the case of “GUCAGCUCGUGAGGAUAUACAUCACUGCUUCGGCAGUGUAUUAAGAUCACAUGAGGAUCACCCAUGUAGAAGGUACGAGCUGAU [ENG2/2-C2] (Eterna round: R96, puzzle: Exclusion NG 2)”, the “apparent KD of MS2 coat protein” value worked out at 214 nM (input ligand: FMN 200 uM), 17.6 nM under setting [2] and 26.9 nM (input ligand: none).

For “GUCAGGAAUGUAGGAUAUCUGCACGUUUAGUGCAGAGAAGGACAUGAGGAUCACCCAUGUAUAGUAGCUUCGGCUACACCUGAC [ENG1-A2] (Eterna round: R96, puzzle: Exclusion NG 1)”, the “apparent KD of MS2 coat protein” value is, setting by setting: (input ligand: FMN 200 uM) 19.3 nM; under setting [2], 12.5 nM; (input ligand: none) 15.9 nM.

With “GUCCGGCAUGUAGGAUAUGGAUCCGAUUAGGAUUUAGAAGGACAUGAGGAUCACCCAUGUACAUGUAAUUAGUCAUUACCGGAC [EXclNG1-LROPPY02] (Eterna round: R96, puzzle: Exclusion NG 1)”, the “apparent KD of MS2 coat protein” value by setting is: (input ligand: FMN 200 uM) 40.2 nM; under setting [2], 17.8 nM; (input ligand: none) 22.2 nM.

With “GUCGUGCAGCUUUGCUGUACGAGUACAUGAGGAUCACCCAUGUAGGAUAUGGUACGCUUUGCGUGCUAGAAGGAUAUGUGUAGA [salish99_ExNG3_r04_502] (Eterna round: R96, puzzle: Exclusion NG 3)”, the “apparent KD of MS2 coat protein” value runs as follows: (input ligand: FMN 200 uM) 53.5 nM; under setting [2], 30.2 nM; (input ligand: none) 36.1 nM.

With “GUCUAACAUGAGGAUCACCCAUGUCAGGAUAUGCGAAUUUCAUCAAAAGAUGAAAUUUGCAGAAGGGACUAGAC [Omei Ex1 A28] (Eterna round: R97, puzzle: Exclusion 1)”, the “apparent KD of MS2 coat protein” value (input ligand: FMN 200 uM) worked out at 26.6 nM and the “apparent KD of MS2 coat protein” value (input ligand: none) was 24.1 nM.

Turning to “GUCUCACAUGAGGAUCACCCAUGUGAGGAUAUACUGGGCAUUCUGGUGGCAGGUGGGCGUAGAAGGCACGUGGG [Eternabot (L1) Solution 82] (Eterna round: R97, puzzle: Exclusion 1)”, the “apparent KD of MS2 coat protein” value runs as follows: (input ligand: FMN 200 uM) 33.8 nM; (input ligand: none) 19.4 nM.

As for “GUCUCCAGAGGAUAUCUUUUACGCGACAUGAGGAUCACCCAUGUAGAGGAGAUUGUCAGGAGAGAAGGCUGGGACG [Eternabot (L1) Solution 56] (Eterna round: R97, puzzle: Exclusion 5)”, the “apparent KD of MS2 coat protein” value runs as follows: (input ligand: FMN 200 uM) 55.1 nM; (input ligand: none) 42.7 nM.

As to “GUCUCGUCAGGAUAUGACGCUACAUUUUGUUUUUAGAAGAGUCAGAAGGGACAUGAGGAUCACCCAUGUGAUUC [Ex4 - 3 - 1] (puzzle: Exclusion 4)”, under setting [1], the “apparent KD of MS2 coat protein” value came out at 257 nM.

As for “GUCUUAAGUUAAACCGAUUACAUGAGGAUCACCCAUGUGAACAUGACAGUCCGCAUGAGGAGUUUCUUGCUCGUCAU [Eternabot (L1) Solution 28] (Eterna round: R97, puzzle: Sensor, turn-off variant 1)”, the “apparent KD of MS2 coat protein” value came to 49.6 nM (input ligand: FMN 200 uM) and 46.8 nM (input ligand: none).

With “GUCUUACAUGAGGAUCACCCAUGUGAGGAUAUGAGUGGUGCUGCUAGGUAGUAUAGACUCAGAAGGCGCAUGAU [Malcxlusion 3 - Jieux - Exclusion 1] (Eterna round: R97, puzzle: Exclusion 1)”, the “apparent KD of MS2 coat protein” value (input ligand: FMN 200 uM) came to 37.7 nM and the “apparent KD of MS2 coat protein” value (input ligand: none) came to 22.6 nM.

With “GUGAAGUAAGGAUAUACAUGAGGAUCACCCAUGUGUGGGAAGGUGAUGGGAGUAGGUAGUAGAAGGUACGAGGA [JR_Exclu3_Sub065] (puzzle: Exclusion 3)”, the “apparent KD of MS2 coat protein” value under setting [1] was 108 nM.

In the case of “GUGAAGUAAGGAUAUAGUGGAAAAGAUAAGGUAUGAGAGUUCUAGAAGGUACAUGAGGAUCACCCAUGUUAGGG [JR_Exclu4_Sub085] (Eterna round: R96, puzzle: Exclusion 4)”, the “apparent KD of MS2 coat protein” value is 324 nM (input ligand: FMN 200 uM), 212 nM under setting [2] and 360 nM (input ligand: none).

Turning to “GUGAAGUAAGGAUAUAGUGGAAAAGAUAAGGUAUGAGAGUUCUAGAAGGUACAUGAGGAUCACCCAUGUUAGGG [JR_Exclu4_Sub085] (puzzle: Exclusion 4)”, the “apparent KD of MS2 coat protein” value under setting [1] was 267 nM.

On to “GUGCAGCGAGGAUAUACAGACGGGUCCAGUACGUGUCUUGGACUUGAGGAUCACCCAAGUAGAAGGCGUCUCAG [salish99_ex2_r4_609] (Eterna round: R97, puzzle: Exclusion 2)”, for which the “apparent KD of MS2 coat protein” value is, setting by setting: (input ligand: FMN 200 uM) 35.4 nM; (input ligand: none) 36.8 nM.

“GUGGUAGGUUUUUCGAGUAACAUGAGGAUCACCCAUGUAUUAGUUGGAUGUAUCAAGCUUUUUGCUCGACUUAUAAA [JR_SV3TOV1_Sub043] (puzzle: Sensor v3, turn-off variant 1)”: the “apparent KD of MS2 coat protein” value (Eterna round: R95, input ligand: FMN 200 uM) came out at 249 nM; the “apparent KD of MS2 coat protein” value under setting [1] was determined as 40.6 nM; the “apparent KD of MS2 coat protein” value (Eterna round: R95, input ligand: none) was determined as 288 nM.

With “GUGUACAGAGGAUAUACACGAGGAGUUACGAAAGUAACUUCACAUGAGGAUCACCCAUGUAGAAGGCUGUACAC [Dot plot directed v6] (puzzle: Exclusion 2)”, the “apparent KD of MS2 coat protein” value under setting [1] came out at 25.4 nM.

With “GUGUAGAGAGGAUAUACAUGAGGAUCACCCAUGUGAAUAAGAUAGAAUAAGAUAAAGUGUAGAAGGCUUAGUGU [Excluse me!!! 20 - Jieux - Exclusion 3] (puzzle: Exclusion 3)”, the “apparent KD of MS2 coat protein” value under setting [1] stood at 31.8 nM.

On to “GUGUAGAUAGGAUAUACGAGAGUCUAGCGAAGCUAGAUUCUACAUGAGGAUCACCCAUGUAGAAGGGUCUACAC [Fiskers Ex 2 - 30] (puzzle: Exclusion 2)”, for which the “apparent KD of MS2 coat protein” value under setting [1] was 14.2 nM.
